The target of the test is T1, GST-AIM3 fusion protein (human, UniProt O43324 1-174).
T1 construct: Immobilised on glutathione-sepharose beads; also called GST-fused AIM3; GST-fused AIM3 protein; not shown: glutathione S-transferase (GST) fusion partner from the Pharmacia system; The vector, the linker and the order of the fu
T1 sequence: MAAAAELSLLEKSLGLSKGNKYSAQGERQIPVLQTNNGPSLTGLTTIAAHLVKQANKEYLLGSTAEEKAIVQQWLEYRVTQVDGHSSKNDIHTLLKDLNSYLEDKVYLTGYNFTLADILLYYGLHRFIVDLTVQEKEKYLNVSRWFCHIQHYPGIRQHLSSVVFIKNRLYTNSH
As to the kind of experiment: GST pull-down of in vitro translated, radiolabelled fragment, autoradiography. The source says: First, AIM3 was expressed as GST fusion protein and purified according to the manufacturer's protocol (Pharmacia). Meanwhile, since it was difficult to synthesize the whole ATM due to its large size, the present inventors tested the interaction between the functional domain of ATM and AIM3. For this purpose, a fragment consisting of 612 amino acids, including the FAT domain of an ATM structure, was amplified by PCR with primers shown in SEQ ID NO: 12 and SEQ ID NO: 13. Also, a fragment (control group) consisting of 145 amino acids, including the C-terminal domain, was amplified by PCR with primers shown in SEQ ID NO: 14 and SEQ ID NO: 15. Then, the amplified PCR products were subdloned into pcDNA3.1 (Invitrogen), a vector suitable for in vitro transcription and […]. At this time, the protein was synthesized by in vitro translation in the presence of radioactive methionine. 10 μl of the synthesized TNT product was incubated with the GST- or GST-AIM3 fusion protein-immobilized glutathion-sepharose beads for 5 minutes. Then, the beads were washed six times with a binding buffer (PBS containing 0.2% sarcosine and 0.2% Triton X100), and dissolved in 10% SDS-PAGE. The binding of the GST-fused AIM3 to each domain was determined by autoradiography.

B1: ATM fragment consisting of 145 amino acids, including the C-terminal domain (other, UniProt Q13315 2912-3056, looked up)
chain: RDIVDGMGITGVEGVFRRCCEKTMEVMRNSQETLLTIVEVLLYDPLFDWTMNPLKALYLQQRPEDETELHPTLNADDQECKRNLSDIDQSFNKVAERVLMRLQEKLKGVEEGTVLSVGGQVNLLIQQAIDPKNLSRLFPGWKAWV
modifications: radioactive methionine (in vitro translated)
notes: domain: C-terminal domain; Made by in vitro transcription and translation from pcDNA3.1; Its limits are set only by the PCR primers; also called C-terminal domain of ATM; control group fragment
For the molecule B1, the binding result is given as “no binding”.

Source of the values: patent US20060046250A1 (SEOUL NATIONAL UNIVERSITY INDUSTRY FOUNDATION, published 2006).
